US5912325A, “Biologically active porcine somatotropin polypeptides and methods of using the same” (American Cyanamid Company, priority 1994, dated 1999)

Test system: hypox rats
Test: Biological assay for growth-promoting activity: net weight gain of hypophysectomized rats
Format: in vivo, rat
Conditions: 5 ug/day pST alone, day 0 to 4 and day 7 to 10, versus untreated rats, FIG. 4
Description: Hypox rats are injected subcutaneously with pST (5 ug/day) with or without antibody (2 mg/day) for 5 consecutive days and the net weight gain is recorded. Immune antibodies are prepared from two pigs that had been immunized with pST (54-95) and the control antibody is prepared from a pooled sera of non-immunized pigs. *,p<0.05; **,p<0.01.
In a study similar to that shown in FIG. 3, except antibody is injected at a dose of 0.5 mg/day and for a longer period of time. *,p<0.05; **,p<0.01; ***,p<0.001.
Hypophysectomized female Sprague-Dawley rats, 21 days of age and weighing 50-64 g, are obtained from Taconic Farm, Germantown, N.Y. and used to assay for Growth Hormone (GH). Female crossbred swine (Duroc x Yorkshire x Hampshire), 3-5 months of age, weighing 30-50 kg, are obtained from the breeding colony of American Cyanamid Co., Princeton, N.J. and used for the production of antibodies.
Hypophysectomized rats are randomly allocated to groups of eight. Antibody mixed with 5 ug pST at room temperature for 1 hour is administered subcutaneously in the neck region of experimental rats. All animals are treated daily for various periods of time and their growth is recorded as net weight gain. […]
The growth enhancing effect of these antibodies are evaluated in hypox rats. […] Net weight gains are recorded. […]

B1: pST: single chain polypeptide of 191 amino acids, growth hormone native to swine (protein, UniProt P01248 27-216, looked up)
Somatotropin: FPAMPLSSLFANAVLRAQHLHQLAADTYKEFERAYIPEGQRYSIQNAQAAFCFSETIPAPTGKDEAQQRSDVELLRFSLLLIQSWLGPVQFLSRVFTNSLVFGTSDRVYEKLKDLEEGIQALMRELEDGSPRAGQILKQTYDKFDTNLRSDDALLKNYGLLSCFKKDLHKAETYLRVMKCRRFVESSCAF
For B1, the “growth (net weight gain)” value was “marked growth as compared to untreated rats”.
